Laboratory results reported in the supplement of paper PMC10567573.

B1: EPB41L3 (parent)
chain: SELGDYDPDECGSDYISEFRFAPN

Variants of: B1
Assay: protein stability index of a GFP-peptide fusion (GPS, HEK-293T) (PSI 1-6); higher = more stable
Details: c terminus: a fixed tail appended
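Also: lentivirally expressed fusions sorted by FACS into six bins by GFP to DsRed ratio, PSI derived from sequencing read proportions per bin multiplied by bin number.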

Variant	protein stability index
SELGDYDPTECGSDYISEFRFAPN [D9T]	1.47
SELGDYDPVECGSDYISEFRFAPN [D9V]	1.87
SELGDYDPWECGSDYISEFRFAPN [D9W]	1.63
SELGDYDPYECGSDYISEFRFAPN [D9Y]	1.99
SELGDYDPDACGSDYISEFRFAPN [E10A]	1.88
SELGDYDPDCCGSDYISEFRFAPN [E10C]	2.38
SELGDYDPDDCGSDYISEFRFAPN [E10D]	1.81
SELGDYDPDFCGSDYISEFRFAPN [E10F]	1.55
SELGDYDPDGCGSDYISEFRFAPN [E10G]	1.78
SELGDYDPDHCGSDYISEFRFAPN [E10H]	1.5
SELGDYDPDICGSDYISEFRFAPN [E10I]	1.45
SELGDYDPDKCGSDYISEFRFAPN [E10K]	1.85
SELGDYDPDLCGSDYISEFRFAPN [E10L]	1.61
SELGDYDPDMCGSDYISEFRFAPN [E10M]	1.75
SELGDYDPDNCGSDYISEFRFAPN [E10N]	1.9
SELGDYDPDPCGSDYISEFRFAPN [E10P]	2.04
SELGDYDPDQCGSDYISEFRFAPN [E10Q]	1.84
SELGDYDPDRCGSDYISEFRFAPN [E10R]	2.26
SELGDYDPDSCGSDYISEFRFAPN [E10S]	1.85
SELGDYDPDTCGSDYISEFRFAPN [E10T]	1.85
SELGDYDPDVCGSDYISEFRFAPN [E10V]	2.06
SELGDYDPDWCGSDYISEFRFAPN [E10W]	1.91
SELGDYDPDYCGSDYISEFRFAPN [E10Y]	1.55
SELGDYDPDEAGSDYISEFRFAPN [C11A]	2.02

Variant	protein stability index
SELGDYDPDEDGSDYISEFRFAPN [C11D]	2.8
SELGDYDPDEEGSDYISEFRFAPN [C11E]	2.7
SELGDYDPDEFGSDYISEFRFAPN [C11F]	1.77
SELGDYDPDEGGSDYISEFRFAPN [C11G]	2.26
SELGDYDPDEHGSDYISEFRFAPN [C11H]	1.6
SELGDYDPDEIGSDYISEFRFAPN [C11I]	2.2
SELGDYDPDEKGSDYISEFRFAPN [C11K]	2.26
SELGDYDPDELGSDYISEFRFAPN [C11L]	2.06
SELGDYDPDEMGSDYISEFRFAPN [C11M]	2
SELGDYDPDENGSDYISEFRFAPN [C11N]	2.27
SELGDYDPDEPGSDYISEFRFAPN [C11P]	1.78
SELGDYDPDEQGSDYISEFRFAPN [C11Q]	2.49
SELGDYDPDERGSDYISEFRFAPN [C11R]	2.01
SELGDYDPDESGSDYISEFRFAPN [C11S]	2.51
SELGDYDPDETGSDYISEFRFAPN [C11T]	1.94
SELGDYDPDEVGSDYISEFRFAPN [C11V]	1.91
SELGDYDPDEWGSDYISEFRFAPN [C11W]	1.68
SELGDYDPDEYGSDYISEFRFAPN [C11Y]	2.1
SELGDYDPDECASDYISEFRFAPN [G12A]	2.02
SELGDYDPDECCSDYISEFRFAPN [G12C]	1.55
SELGDYDPDECDSDYISEFRFAPN [G12D]	3.19
SELGDYDPDECESDYISEFRFAPN [G12E]	2.11
SELGDYDPDECFSDYISEFRFAPN [G12F]	1.72
SELGDYDPDECHSDYISEFRFAPN [G12H]	2.22

Variant	protein stability index
SELGDYDPDECISDYISEFRFAPN [G12I]	2.16
SELGDYDPDECKSDYISEFRFAPN [G12K]	1.9
SELGDYDPDECLSDYISEFRFAPN [G12L]	2.15
SELGDYDPDECMSDYISEFRFAPN [G12M]	1.88
SELGDYDPDECNSDYISEFRFAPN [G12N]	2
SELGDYDPDECPSDYISEFRFAPN [G12P]	2.12
SELGDYDPDECQSDYISEFRFAPN [G12Q]	2.04
SELGDYDPDECRSDYISEFRFAPN [G12R]	1.77
SELGDYDPDECSSDYISEFRFAPN [G12S]	2.15
SELGDYDPDECTSDYISEFRFAPN [G12T]	1.93
SELGDYDPDECVSDYISEFRFAPN [G12V]	1.95
SELGDYDPDECWSDYISEFRFAPN [G12W]	1.83
SELGDYDPDECYSDYISEFRFAPN [G12Y]	2.32
SELGDYDPDECGADYISEFRFAPN [S13A]	2.08
SELGDYDPDECGCDYISEFRFAPN [S13C]	1.84
SELGDYDPDECGDDYISEFRFAPN [S13D]	2.7
SELGDYDPDECGEDYISEFRFAPN [S13E]	2.59
SELGDYDPDECGFDYISEFRFAPN [S13F]	2.11
SELGDYDPDECGGDYISEFRFAPN [S13G]	2.09
SELGDYDPDECGHDYISEFRFAPN [S13H]	2.1
SELGDYDPDECGIDYISEFRFAPN [S13I]	2.37
SELGDYDPDECGKDYISEFRFAPN [S13K]	1.82
SELGDYDPDECGLDYISEFRFAPN [S13L]	1.97
SELGDYDPDECGMDYISEFRFAPN [S13M]	2

Variant	protein stability index
SELGDYDPDECGNDYISEFRFAPN [S13N]	2.34
SELGDYDPDECGPDYISEFRFAPN [S13P]	2.28
SELGDYDPDECGQDYISEFRFAPN [S13Q]	2.09
SELGDYDPDECGRDYISEFRFAPN [S13R]	1.95
SELGDYDPDECGTDYISEFRFAPN [S13T]	1.69
SELGDYDPDECGVDYISEFRFAPN [S13V]	1.76
SELGDYDPDECGWDYISEFRFAPN [S13W]	2.22
SELGDYDPDECGYDYISEFRFAPN [S13Y]	1.91
SELGDYDPDECGSAYISEFRFAPN [D14A]	1.46
SELGDYDPDECGSCYISEFRFAPN [D14C]	1.89
SELGDYDPDECGSEYISEFRFAPN [D14E]	1.5
SELGDYDPDECGSFYISEFRFAPN [D14F]	2.43
SELGDYDPDECGSGYISEFRFAPN [D14G]	1.27
SELGDYDPDECGSHYISEFRFAPN [D14H]	1.86
SELGDYDPDECGSIYISEFRFAPN [D14I]	2.32
SELGDYDPDECGSKYISEFRFAPN [D14K]	1.49
SELGDYDPDECGSLYISEFRFAPN [D14L]	2.41
SELGDYDPDECGSMYISEFRFAPN [D14M]	2.07
SELGDYDPDECGSNYISEFRFAPN [D14N]	1.99
SELGDYDPDECGSPYISEFRFAPN [D14P]	1.63
SELGDYDPDECGSQYISEFRFAPN [D14Q]	1.47
SELGDYDPDECGSRYISEFRFAPN [D14R]	2.51
SELGDYDPDECGSSYISEFRFAPN [D14S]	1.61
SELGDYDPDECGSTYISEFRFAPN [D14T]	2.58

Variant	protein stability index
SELGDYDPDECGSVYISEFRFAPN [D14V]	1.31
SELGDYDPDECGSWYISEFRFAPN [D14W]	1.66
SELGDYDPDECGSYYISEFRFAPN [D14Y]	2.11
SELGDYDPDECGSDAISEFRFAPN [Y15A]	2.46
SELGDYDPDECGSDCISEFRFAPN [Y15C]	2.84
SELGDYDPDECGSDDISEFRFAPN [Y15D]	4.23
SELGDYDPDECGSDEISEFRFAPN [Y15E]	4.13
SELGDYDPDECGSDFISEFRFAPN [Y15F]	2.18
SELGDYDPDECGSDGISEFRFAPN [Y15G]	3.75
SELGDYDPDECGSDHISEFRFAPN [Y15H]	2.87
SELGDYDPDECGSDIISEFRFAPN [Y15I]	2.5
SELGDYDPDECGSDKISEFRFAPN [Y15K]	2.77
SELGDYDPDECGSDLISEFRFAPN [Y15L]	2.35
SELGDYDPDECGSDMISEFRFAPN [Y15M]	2.91
SELGDYDPDECGSDNISEFRFAPN [Y15N]	4.06
SELGDYDPDECGSDPISEFRFAPN [Y15P]	1.84
SELGDYDPDECGSDQISEFRFAPN [Y15Q]	3.05
SELGDYDPDECGSDRISEFRFAPN [Y15R]	2.74
SELGDYDPDECGSDSISEFRFAPN [Y15S]	3.43
SELGDYDPDECGSDTISEFRFAPN [Y15T]	2.7
SELGDYDPDECGSDVISEFRFAPN [Y15V]	2.52
SELGDYDPDECGSDWISEFRFAPN [Y15W]	1.97
SELGDYDPDECGSDYASEFRFAPN [I16A]	4.33
SELGDYDPDECGSDYCSEFRFAPN [I16C]	3.41

Variant	protein stability index
SELGDYDPDECGSDYDSEFRFAPN [I16D]	4.99
SELGDYDPDECGSDYESEFRFAPN [I16E]	4.6
SELGDYDPDECGSDYFSEFRFAPN [I16F]	2.26
SELGDYDPDECGSDYGSEFRFAPN [I16G]	4.45
SELGDYDPDECGSDYHSEFRFAPN [I16H]	4.14
SELGDYDPDECGSDYKSEFRFAPN [I16K]	3.37
SELGDYDPDECGSDYLSEFRFAPN [I16L]	2.56
SELGDYDPDECGSDYMSEFRFAPN [I16M]	2.24
SELGDYDPDECGSDYNSEFRFAPN [I16N]	4.52
SELGDYDPDECGSDYPSEFRFAPN [I16P]	3.7
SELGDYDPDECGSDYQSEFRFAPN [I16Q]	3.81
SELGDYDPDECGSDYRSEFRFAPN [I16R]	3.47
SELGDYDPDECGSDYSSEFRFAPN [I16S]	4.05
SELGDYDPDECGSDYTSEFRFAPN [I16T]	3.8
SELGDYDPDECGSDYVSEFRFAPN [I16V]	2.76
SELGDYDPDECGSDYWSEFRFAPN [I16W]	3.24
SELGDYDPDECGSDYYSEFRFAPN [I16Y]	3.47
SELGDYDPDECGSDYIAEFRFAPN [S17A]	2.33
SELGDYDPDECGSDYICEFRFAPN [S17C]	2.52
SELGDYDPDECGSDYIDEFRFAPN [S17D]	3.94
SELGDYDPDECGSDYIEEFRFAPN [S17E]	3.88
SELGDYDPDECGSDYIFEFRFAPN [S17F]	1.7
SELGDYDPDECGSDYIGEFRFAPN [S17G]	2.36
SELGDYDPDECGSDYIHEFRFAPN [S17H]	1.88

Variant	protein stability index
SELGDYDPDECGSDYIIEFRFAPN [S17I]	1.94
SELGDYDPDECGSDYIKEFRFAPN [S17K]	2.32
SELGDYDPDECGSDYILEFRFAPN [S17L]	2.68
SELGDYDPDECGSDYIMEFRFAPN [S17M]	2.11
SELGDYDPDECGSDYINEFRFAPN [S17N]	2.57
SELGDYDPDECGSDYIPEFRFAPN [S17P]	1.52
SELGDYDPDECGSDYIQEFRFAPN [S17Q]	2.44
SELGDYDPDECGSDYIREFRFAPN [S17R]	2.34
SELGDYDPDECGSDYITEFRFAPN [S17T]	1.61
SELGDYDPDECGSDYIVEFRFAPN [S17V]	2.2
SELGDYDPDECGSDYIWEFRFAPN [S17W]	1.76
SELGDYDPDECGSDYIYEFRFAPN [S17Y]	1.7
SELGDYDPDECGSDYISAFRFAPN [E18A]	2.1
SELGDYDPDECGSDYISCFRFAPN [E18C]	2.2
SELGDYDPDECGSDYISDFRFAPN [E18D]	1.83
SELGDYDPDECGSDYISFFRFAPN [E18F]	2.17
SELGDYDPDECGSDYISGFRFAPN [E18G]	2.16
SELGDYDPDECGSDYISHFRFAPN [E18H]	2.37
SELGDYDPDECGSDYISIFRFAPN [E18I]	2.41
SELGDYDPDECGSDYISKFRFAPN [E18K]	2.5
SELGDYDPDECGSDYISLFRFAPN [E18L]	2.45
SELGDYDPDECGSDYISMFRFAPN [E18M]	1.96
SELGDYDPDECGSDYISNFRFAPN [E18N]	2.15
SELGDYDPDECGSDYISPFRFAPN [E18P]	1.66

Variant	protein stability index
SELGDYDPDECGSDYISQFRFAPN [E18Q]	1.53
SELGDYDPDECGSDYISRFRFAPN [E18R]	2.11
SELGDYDPDECGSDYISSFRFAPN [E18S]	2.15
SELGDYDPDECGSDYISTFRFAPN [E18T]	1.94
SELGDYDPDECGSDYISVFRFAPN [E18V]	2.06
SELGDYDPDECGSDYISWFRFAPN [E18W]	1.99
SELGDYDPDECGSDYISYFRFAPN [E18Y]	1.67
SELGDYDPDECGSDYISEARFAPN [F19A]	4.66
SELGDYDPDECGSDYISECRFAPN [F19C]	4.68
SELGDYDPDECGSDYISEDRFAPN [F19D]	5.28
SELGDYDPDECGSDYISEERFAPN [F19E]	5.42
SELGDYDPDECGSDYISEGRFAPN [F19G]	4.99
SELGDYDPDECGSDYISEHRFAPN [F19H]	4.85
SELGDYDPDECGSDYISEIRFAPN [F19I]	4.67
SELGDYDPDECGSDYISEKRFAPN [F19K]	4.83
SELGDYDPDECGSDYISELRFAPN [F19L]	3.84
SELGDYDPDECGSDYISEMRFAPN [F19M]	3.91
SELGDYDPDECGSDYISENRFAPN [F19N]	5.06
SELGDYDPDECGSDYISEPRFAPN [F19P]	4.97
SELGDYDPDECGSDYISEQRFAPN [F19Q]	5.04
